Data reported in patent US20150274802A1.
Square brackets hold non-standard residues; d marks the D form. Primed or numbered codes have the meaning given here. Ends that are not written are not given here. PEG4″ = 4-unit polyethylene glycol spacer; PEG8″ = 8-unit polyethylene glycol spacer

What was measured:
[1] = biological target: type A insulin receptor, P06213; assay: cell-based or functional assay
[2] = biological target: type B insulin receptor, P06213; assay: cell-based or functional assay
type A insulin receptor [3] = biological target: type A insulin receptor (UniProt P06213); assay: cell-based or functional assay
type A insulin receptor [4] = biological target: type A insulin receptor (UniProt P06213); assay: competitive binding SPA, subtype A insulin receptor (FIG. 17D)

B1: #57: Gly^B2-PEG20K-Gly^B2 #11 dimer (ligand)
chain: GPEHLCGAHLVDALYLVCGDRGFYGYGSSSRRAPQTGIVDECCHRSCDLRRLENYCN
modifications: not fully specified (N-terminus); ends and bridges not checked; also: dimer: N-terminal amines of two chains joined by bifunctional 20K PEG linker
% Insulin Activity (in vitro, assay not named) [1]: 19.7%
Phosphorylation (EC50), % IR-A [1]: 19.7%
potency against the 20K PEGylated monomer (#39) [1]: 4 fold
% Insulin Activity (in vitro, assay not named) [2]: 5.8%
Phosphorylation (EC50), % IR-B [2]: 5.8%
potency against the 20K PEGylated monomer (#39) [2]: 4 fold

B2: #55: Lys^B1-PEG9-Lys^B1 #20* dimer, GE5K-B^1(H5,10Y16L17)25-C^1-A^1(H8N18,21) (ligand)
chain: GEEEEEKGPEHLCGAHLVDALYLVCGDRGFYGYGSSSRRAPQTGIVDECCHRSCDLRRLENYCN
Phosphorylation (EC50), % IR-A (type A insulin receptor [3]): 44%

B3: #56: Gly^B2-PEG10K-Gly^B2 #11 dimer (ligand)
chain: B1 chain
modifications: not fully specified (N-terminus); ends and bridges not checked; also: dimer: N-terminal amines of two chains joined by bifunctional 10K PEG linker
Phosphorylation (EC50), % IR-A [1]: 38.2%
Phosphorylation (EC50), % IR-B [2]: 9.7%

B4: #58: Lys^C8-PEG20K-Lys^C8 #3 dimer (ligand)
chain: Ac-GPEHLCGAELVDALYLVCGDRGFY[PEG8″]KGIVDECCFRSCDLRRLENYCN
modifications: not fully specified (some residues); numbers in words are those of the source; ends and bridges not checked; also: dimer: linker Lys epsilon-amines of two chains joined by bifunctional 20K PEG linker
Phosphorylation (EC50), % IR-A [1]: 18.6%

B5: #59: Cys^B1-Lys^C8 #2(sc)-#3 dimer (ligand)
chain 1: CGPEHLCGAELVDALYLVCGDRGFYFNKKGIVDECCFRSCDLRRLENYCN
chain 2: GPEHLCGAELVDALYLVCGDRGFYKGIVDECCFRSCDLRRLENYCN
modifications: here or on the partner: N-terminus acetylated; linker Lys epsilon-amine mercaptopropionylated; Cys B1 side chain disulfide-linked to the mercaptopropionyl group on the linker Lys of the second chain
IC50, antagonism test [1]: 2.08 nM
maximal response [2]: 10%

B6: #60: Cys^B1-Lys^C8 #2(tc)-#3 dimer (ligand)
chain 1: CGPEHLCGAELVDALYLVCGDRGFYFNKK
chain 2: GIVDECCFRSCDLRRLENYCN
chain 3: B5 chain 2
modifications: here or on the partner: N-terminus acetylated; linker Lys epsilon-amine mercaptopropionylated; Cys B1 side chain disulfide-linked to the mercaptopropionyl group on the linker Lys of the single-chain unit
IC50, antagonism test [1]: 1.89 nM
maximal receptor response [1]: 50%
maximal response [2]: 50%

B7: #53: Lys^C8-Lys^C8 #3 dimer, B^1[H5Y16L17]25-PEG8KPEG4-A^1[N18,21] (ligand)
chain: Ac-GPEHLCGAELVDALYLVCGDRGFY[PEG8″]K(mercaptopropionyl)[PEG4″]GIVDECCFRSCDLRRLENYCN
modifications: ends and bridges not checked; also: dimer: linker Lys side chains joined by disulfide to second chain
binding affinity, fold against native insulin (type A insulin receptor [4]): 1.5 fold
